The record followed here is US6900033 (dated 2005).

Positions of bridges follow the written chain, without caps; N, C: chain ends.

The test deals with ACE-2 (human). Nature of the test: other, ACE-2 enzyme inhibition.
Sequence of ACE-2 (human) (Q9BYF1 1-740): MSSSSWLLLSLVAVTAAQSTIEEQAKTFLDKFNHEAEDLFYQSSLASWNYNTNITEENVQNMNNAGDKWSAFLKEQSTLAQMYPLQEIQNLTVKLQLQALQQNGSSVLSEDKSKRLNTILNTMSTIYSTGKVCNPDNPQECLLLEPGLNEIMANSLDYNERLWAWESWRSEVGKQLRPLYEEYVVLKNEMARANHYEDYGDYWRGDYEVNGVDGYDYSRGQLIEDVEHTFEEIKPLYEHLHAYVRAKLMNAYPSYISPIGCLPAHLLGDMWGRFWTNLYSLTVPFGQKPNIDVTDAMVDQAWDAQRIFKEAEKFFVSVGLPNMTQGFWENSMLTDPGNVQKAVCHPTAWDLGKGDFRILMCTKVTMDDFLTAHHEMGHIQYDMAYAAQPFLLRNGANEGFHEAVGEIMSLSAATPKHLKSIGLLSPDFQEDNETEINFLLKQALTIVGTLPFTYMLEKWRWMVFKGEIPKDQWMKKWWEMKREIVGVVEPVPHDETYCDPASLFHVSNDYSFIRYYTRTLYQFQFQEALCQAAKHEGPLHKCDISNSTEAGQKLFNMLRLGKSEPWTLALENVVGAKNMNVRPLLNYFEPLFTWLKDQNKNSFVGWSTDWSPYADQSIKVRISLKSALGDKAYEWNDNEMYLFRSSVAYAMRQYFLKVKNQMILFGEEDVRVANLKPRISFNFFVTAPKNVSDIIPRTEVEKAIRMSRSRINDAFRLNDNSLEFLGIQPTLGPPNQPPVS

By Ki is commonly meant the equilibrium dissociation constant of an inhibitor or competing ligand from its target. Low values mean higher affinity, high ones lower affinity. Ac-GDLHACRPVRGDPWWACTLGDPEGGG-NH2 (disulfide 6-17 (inferred)) [DX-513] gave a Ki of 150 nM.
In the case of Ac-GDRLHCKPQRQSPWMKCQHLDPEGGG-NH2 (disulfide 6-17 (inferred)) [DX-512], the affinity corresponds to a Ki of 150 nM.
